Measured values: the DeepSol protein solubility set

Experiment: soluble on expression in E. coli; label from the status in PepcDB or PDB records

Sequence	soluble on expression in E. coli
MSLASLPISNFFTFNHQSTLFTKVKNFMGVKHIGDCMKALINGTIYTSFSPVKKVSGLVISNERVLYAGDSSTALRIAELAGGEIIDLKGKFVMPAFFDSHLHLDELGMSLEMVDLRGVKSMEELVERVKKGRGRIIFGFGWDQDELGRWPTREDLDVIDRPVFLYRRCFHVAVMNSKMIDLLNLKPSKDFDESTGIVRERALEESRKIINEKILTVKDYKHYIESAQEHLLSLGVHSVGFMSVGEKALKALFELEREGRLKMNVFAYLSPELLDKLEELNLGKFEGRRLRIWGVKLFVDGSLGARTALLSEPYTDNPTTSGELVMNKDEIVEVIERAKPLGLDVAVHAIGDKAVDVALDAFEEAEFSGRIEHASLVRDDQLERIKELKVRISAQPHFIVSDWWIVNRVGEERAKWAYRLKTLSSITKLGFSTDSPIEPADPWVSIDAAVNRYVVDPGERVSREEALHLYTHGSAQVTLAEDLGKLERGFRAEYIILDRDPLKEMKGIITITTDPNSSSVDKLAAALEHHHHHH	soluble
MGSDKIHHHHHHAQQQELPVPKPHQLKWHEAEMGAVFHYDLHVFDGIRYGQGNNRINPIEDYNIFNPTELNTDQWVQAAKAAGCKFAVLTATHETGFGLWQSDVNPYCLKAVKWRDGKGDIVRDFVNSCRKYGLQPGIYIGIRWNSLLGIHNFKAEGEGAFARNRQAWYKRLCEKMVTELCTRYGDLYMIWFDGGADDPRADGPDVEPIVNKYQPNCLFYHNIDRADFRWGGSETGTVEYPCWSTFPVPCSHHKRIESSIDQLELLKHGDKNGRYWVPAMADTPLRGANGRHEWFWEPDDENNIYPLNTLMDKYEKSVGRNATLILGLTPDPTGLIPAGDAQRLKEMGDEINRRFSSPIARISGQKKSLTLKLGKEQSVNYCIIQENIKNGERIRQYQIEAKVNGKWQTVCKGESVGHKRIEKFEPVEATALRLTVSESIALPDIINFSAYSVK	not soluble
KGFSSEDKGEWKLKLDASGNGQAVIRFLPAKTDDALPFAILVNHGFKKNGKWYIETCSSTHGDYDSCPVCQYISKNDLYNTNKTEYSQLKRKTSYWANILVVKDPQAPDNEGKVFKYRFGKKIWDKINAMIAVDTEMGETPVDVTCPWEGANFVLKVKQVSGFSNYDESKFLNQSAIPNIDDESFQKELFEQMVDLSEMTSKDKFKSFEELNTKFNQVLGTAALGGAAAAAAS	soluble
EVQLQQSGAELVRPGTSVKLSCKASGYSFTNYWMNWLRQRPGQGLDWIGMIHPSDSETRLNQKFKDKATLTVDRSSSTAYIQLSSPTSEDSAVYYCARDDYDGAFWGQGTLVTVSAAKTTPPSVYPLAPGSAAQTNSMVTLGCLVKGYFPAPVTVTWNSGSLSSGVHTFPAVLQSDLYTLSSSVTVPSSTWPSETVTCNVAHPASSTKVDKKIVPRDC	soluble
MNYQNDDLRIKEIKELLPPVALLEKFPATENAANTVAHARKAIHKILKGNDDRLLVVIGPCSIHDPVAAKEYATRLLALREELKDELEIVMRVYFEKPRTTVGWKGLINDPHMDNSFQINDGLRIARKLLLDINDSGLPAAGEFLDMITPQYLADLMSWGAIGARTTESQVHRELASGLSCPVGFKNGTDGTIKVAIDAINAAGAPHCFLSVTKWGHSAIVNTSGNGDCHIILRGGKEPNYSAKHVAEVKEGLNKAGLPAQVMIDFSHANSSKQFKKQMDVCADVCQQIAGGEKAIIGVMVESHLVEGNQSLESGEPLAYGKSITDACIGWEDTDALLRQLANAVKARRG	soluble
MSLLASLGGLVSCAAKVHFKEEGNAMNELIANHDFDFRQLVTAAEGQPVTDTFQIAKAFGKRHADVLRALKNCHCSEDFRRAHFCVSEKINNLGIFDKKQIYYRMDFSGFVMLVMGFNGAKADAVKEAYINAFNWMSAELRKYSESYEAERNAIMLEYMKEKDVASMSGRLLNRWGKIKKPQLLARIGRLEQHGQTVIPGLTNEGHHHHHH	not soluble
MSEDSELIEQVIEQPDSLIISPPSDSSSSSYNHIQPFVYLESTATTQTNHNVLLILNQKITIDLISLWKKCEIIVCADGGANSLYEYFNDNNHHHHHENLQRSDYIPDYIVGDFDSISPDVKTYYESHGSKIIRQSSQYYNDFTKSIHCIQLHYQLNHTKENWFESIDEVDGLAKLWNGLNNSSDVVVDIDITIYVLNAIGGRFDQTVQSINQLYIMNEDYPKVTVFFITTNDIIFLLKKGVNYISYKNRLMFHKDNGSSPTPTCGLLPLSNKTPIILNSYGLKYDMRNWKTEMLGQVSSSNRISGETGFIVECSDDIVMNIEIDV	soluble
MSLKAPYTIGWANIYSVPTWMKQTEGTITAEVEELKKAGLVRDLMITDAQGNAQTQIQHIQSMIDANVDAIVVIAGSSNALDRVISDACDKGIAVVNFDSLVNTDKVTAKINTDSNEWGATAAKWMVSQLGGKGKIIIMNGPAGISVSDDRRKGAQPVLDANPGLQVITETNTEYNVAPAQEAMTSLLFANPEIDGVLSLGGALSAGSVLAFERQGRDQVPTTGENARQFLELWKEKGLKGWATMQPNWLGALSVYTAVQALEGKDVPAFVKVPLPVIDDSTIGSYLARADKFPADGYIYSDYDKALFDKLLATKEGHHHHHH	soluble
DVQPETCRPSAASGNYFPQYPEYAIETARLRTFEAWPRNLKQKPHQLAEAGFFYTGVGDRVRCFSCGGGLMDWNDNDEPWEQHALWLSQCRFVKLMKGQLYIDTVAAKPVLAEEKEESTSIGGD	soluble
SLKPSRPVETAYLQGQPGTPFPVIRGIGWSEDQGRRPDMEDGMVAISNLAGVANAWLLGIYDGHGGRQMVEMLLQKIHGNVLQHLRSRAIERWQRYRQRAMSRLQDIRRRLDELHFQQQLACRDVRVLMPPTQRLVELLRLGRICEWVLQCEEPSQEGRTETEKSSASKAPTPPSFLTICTEEDVHRALDEAFVQTDVEILQRLTHPSDHKAGCERDARRVESLGGWVFGERVNGMLAIGRAFGDWSLKLPPGKANPPYSPTSGAFDRLLNIFGTSPSHAAEQAAAERKEYVVSNAPDVRSVSLTPERPAQVPGGIRRNSPSSRASESQTAMSGQETGAGRVPGLLVLGCDGLFDVCSDQVVAHLALEFLRQLVAVHPDMSPCEAAKATARMLIEEAIGVRGSTDNVSVMVVLFHSFGFSGRDGVTPSPPTWYAAAAAKFAWLAEGVSRNVFGLPTASPIALPREPEDKTVD	not soluble
MSLSGDLIDGLRDLNVLVVQPHDGSTEELLKQIGRIGCNATAVWPFPQSIPDGTDMIFMEITHPLDANAVRLLGVESVDAPTVVGIIAYENPSVLKGIIDLKIDTVLAKPIRPFGVLSHMLMARSVCLARRRDEEELQKLRRKIQAIQKIADAKFILMRHHSINETEAYKIIRSQAMAKRTSTLEIAQSVINAESILSGMAPHDLTARMQSQTEGHHHHHH	not soluble
ARLGNWEFDLETNVFTCSEESCRIFGIRDHRQGKSHRALMRRVHPEDRVTVKKAIFQAFRTGVGYCMDHRIVLDDGVERIVSQHAELLSADDGRTSRLVGTVHDIT	not soluble
MGSDKIHHHHHHMPTVERHIRGKWACDSCETLIQAPVPPQVIDKGIPTAGLLAQVLVAKYADHLPLYRQERMFGRAGLEIPRSTLAEWVGACGVQLQPLVDALRNTLLEHSVLHADETPVSMLAPGKKKTHKAYVWAYCTTPFADLKAAIYDFAPSRAGEHARTFLGDWRGKLVCDDYAGYKAGFGNGITEIGCMAHARRKFYDLHEANKSELAAKALEYIGGLYEIERETKDLPPDMRREIRQTKAKPLADALHQWMLAHRQKVPDGSGTAKALDYSLKRWEALTRYLDDGAVPIDNNWVENQIRPWALGRSNWLFAGSLRSGQRAAAVMTLIQSAKLNRHDPYAYLKDVLTRLPTQKNNAIDELLPHNWKPAIPNKV	not soluble
MTTIDLNCDLGESFGAYKMGNDDEILPFVSSINVACGFHAGDPSIMRQTVEKALEHNVAIGAHPGFPDLIGFGRRNMNVSASEVYDYVLYQTGALDAFVKAAGGKMQHVKPHGALYNMAASNPEIADAIAKAIYHINPSLLLYGLANSEAFIQAAEKYKVTLVQEAFADRTYKQDGTLTSRTEENALIKDEDEAIKQVLQMVKEGYVNSVNGEKVAVQAQTICLHGDGEKAVQFAERIYRTFKLNGISICAPKLEHHHHHH	soluble
MSTLELHHIGKSYQSVMVLDRIDLHVPPGSRTAIVGPSGSGKTTLLRIIAGFETPDAGKVILQGKAMFDGTTYVPAHKRGIGFVPQDGALFPHFTVAGNIGYGLKGSQRDKERRINELMDMVALDRRLSALWPHEISGGQQQRVALARALAQRPVLMLLDEPFSALDTALRASTRKAVAELLSEANIASILVTHDQTEALSFADQVAVMRAGKLAHVGPPQELYLRPVDEPTATFLGETLMLTAQLGTGLAHCALGQVKVDNPHRRGEARIMLRPEQITLTPLRPEQYNAASCLAKVIAIDFAGFISTLTLQIISSGETIEIKTISREDLHVGLTVGLDIMGQAHIFAE	not soluble
MGSDKIHHHHHHMAIAPTLNIPQAKFLAMQYKFKAYVAGFGSGKTWVGCGGICKGMWEHPKINQGYFAPTYPQIRDIFYPTVEEVAHDWGLNVKINEGNKEVHFYAGRQYRGTTICRSMEKPQTIVGFKIGNALIDELDVMPAKKAQLAWRKIIARMRYNVAGLRNGIDVTTTPEGFKFVYQQFAKAVRDKPSLSTLYGLVQASTFDNEKNLPPDYIPSLMESYPPELIKAYLRGQFTNLTSGTIYHQFDRKLNNCREEEQPGEPLYIGMDFNVGKMAGVVHVLRLGLPFAVTEIIKAYDTPDMIRIIKERFWLCDGHDYRKVREIYIYPDASGDSRKSSNASATDIAQLKQAGFNVVVNASNPPVKDRINAMNAMFCNGNGERRYKVNVKRCPVYTESLEQQVWGENGEPDKTADNDHPNDAGGYFIVKQFPIIKPTGKVTQLRM	not soluble
TPGFSLGFIVNMRLHDHFDLRLLPTVGFYSRSIQYDFIKTSEIQTIESTFVEFPLLLKYKSQRRNNSRLYVTGGFKASIEAGAKKKQRKSTDLRTNGFDLCLDMGVGMDIYCPLFKFSPEIRYSHGLLNLLNNDPNVYSSSLSRLSSNTISLFFNFE	not soluble
MHGKDPFSDFREFINTMESRVQELGKAYGVEHLAGPQGFAVRYLFENQDKEIFIKDIEKKLSISKSVASNLVKRMEKNGFVELVTSDKDKRYKYVHLTDLGKKKAQDVGHFREAIHGQLLDGISKEDAETAFRVFHQIRKNLEKNKE	not soluble
MFQGCYGGTQKHEPDLHIVLERAWQQGLQKVIVTAGCLKDVDEALELASKDERIYTTVGTHPTRCEEFVPDPEGYYDQLRSRIKANRTKVRAVGECGLDYDRLHFCAQETQRLYFEKQLDLAAEFKLPLFLHMRNAAEDFMGILERNRNKIEECGGGVVHSFTGTLEEAQRILAFGGLYIGFNGCSLKTDENAEVVRKLPNDRIMLETDCPWCGIRPSHAGHKHVTTKFPTVKKKEKWTAESLIDGRCEPCQISQVLESIAGIKQEPKEQLAALYYQNTLDLFFGTGESKELEHHHHHH	not soluble
MHHHHHHGHNSNLQDILAANAKWASQMNNIQPTLFPDHNAKGQSPHTLFIGCSDSRYNENCLGVLPGEVFTWKNVANICHSEDLTLKATLEFAIICLKVNKVIICGHTDCGGIKTCLTNQREALPKVNCSHLYKYLDDIDTMYHEESQNLIHLKTQREKSHYLSHCNVKRQFNRIIENPTVQTAVQNGELQVYGLLYNVEDGLLQTVSTYTKVTPK	soluble
SFLSEAGARPRAGEISASERRKWVEVFKACDEDNKGYLSREDFKVAIVMLFGYKPSKIEADAVMSSANPDTSGVSLEGFLNVVQRKKEAQLYRNEIRHIFTAFDVHYRGFLTLEDFKRAFSQVAPKLPSRTVLEVFREADQDSDGHVSFRDFEYAMNHGKAK	soluble
